Measured values taken from IntAct's records for PubMed 20708156.

B1: F-box/WD repeat-containing protein 1A (Homo sapiens), Q9Y297 (parent)
chain: MDPAEAVLQEKALKFMCSMPRSLWLGCSSLADSMPSLRCLYNPGTGALTAFQNSSEREDCNNGEPPRKIIPEKNSLRQTYNSCARLCLNQETVCLASTAMKTENCVAKTKLANGTSSMIVPKQRKLSASYEKEKELCVKYFEQWSESDQVEFVEHLISQMCHYQHGHINSYLKPMLQRDFITALPARGLDHIAENILSYLDAKSLCAAELVCKEWYRVTSDGMLWKKLIERMVRTDSLWRGLAERRGWGQYLFKNKPPDGNAPPNSFYRALYPKIIQDIETIESNWRCGRHSLQRIHCRSETSKGVYCLQYDDQKIVSGLRDNTIKIWDKNTLECKRILTGHTGSVLCLQYDERVIITGSSDSTVRVWDVNTGEMLNTLIHHCEAVLHLRFNNGMMVTCSKDRSIAVWDMASPTDITLRRVLVGHRAAVNVVDFDDKYIVSASGDRTIKVWNTSTCEFVRTLNGHKRGIACLQYRDRLVVSGSSDNTIRLWDIECGACLRVLEGHEELVRCIRFDNKRIVSGAYDGKIKVWDLVAALDPRAPAGTLCLRTLVEHSGRVFRLQFDEFQIVSSSHDDTILIWDFLNDPAAQAEPPRSPSRTYTYISR

Variants of: B1
Details: with mdm2_human MDM2, Q00987
mdm2_human MDM2, Q00987, sequence (Q00987 whole entry, looked up): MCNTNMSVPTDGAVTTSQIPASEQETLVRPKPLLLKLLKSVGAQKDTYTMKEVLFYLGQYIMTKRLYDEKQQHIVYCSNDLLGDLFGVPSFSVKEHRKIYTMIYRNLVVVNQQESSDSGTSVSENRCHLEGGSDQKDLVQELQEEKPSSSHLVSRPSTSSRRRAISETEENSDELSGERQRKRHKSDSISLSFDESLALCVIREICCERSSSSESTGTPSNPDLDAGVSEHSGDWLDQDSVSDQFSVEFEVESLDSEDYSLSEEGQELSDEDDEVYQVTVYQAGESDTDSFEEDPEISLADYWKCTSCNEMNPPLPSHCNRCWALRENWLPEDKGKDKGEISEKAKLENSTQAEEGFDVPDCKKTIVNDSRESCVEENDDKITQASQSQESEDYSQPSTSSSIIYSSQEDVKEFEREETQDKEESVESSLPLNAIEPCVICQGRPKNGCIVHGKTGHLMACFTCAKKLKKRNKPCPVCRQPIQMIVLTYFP

effect of a mutation on the interaction	Variant
decreasing interaction	R475A
